Reference: patent US20080085863A1 (WISCONSIN ALUMNI RESEARCH FOUNDATION, published 2008)

Key:
[1] = target: T1, methylamine-treated human α2-macroglobulin
T1 chain: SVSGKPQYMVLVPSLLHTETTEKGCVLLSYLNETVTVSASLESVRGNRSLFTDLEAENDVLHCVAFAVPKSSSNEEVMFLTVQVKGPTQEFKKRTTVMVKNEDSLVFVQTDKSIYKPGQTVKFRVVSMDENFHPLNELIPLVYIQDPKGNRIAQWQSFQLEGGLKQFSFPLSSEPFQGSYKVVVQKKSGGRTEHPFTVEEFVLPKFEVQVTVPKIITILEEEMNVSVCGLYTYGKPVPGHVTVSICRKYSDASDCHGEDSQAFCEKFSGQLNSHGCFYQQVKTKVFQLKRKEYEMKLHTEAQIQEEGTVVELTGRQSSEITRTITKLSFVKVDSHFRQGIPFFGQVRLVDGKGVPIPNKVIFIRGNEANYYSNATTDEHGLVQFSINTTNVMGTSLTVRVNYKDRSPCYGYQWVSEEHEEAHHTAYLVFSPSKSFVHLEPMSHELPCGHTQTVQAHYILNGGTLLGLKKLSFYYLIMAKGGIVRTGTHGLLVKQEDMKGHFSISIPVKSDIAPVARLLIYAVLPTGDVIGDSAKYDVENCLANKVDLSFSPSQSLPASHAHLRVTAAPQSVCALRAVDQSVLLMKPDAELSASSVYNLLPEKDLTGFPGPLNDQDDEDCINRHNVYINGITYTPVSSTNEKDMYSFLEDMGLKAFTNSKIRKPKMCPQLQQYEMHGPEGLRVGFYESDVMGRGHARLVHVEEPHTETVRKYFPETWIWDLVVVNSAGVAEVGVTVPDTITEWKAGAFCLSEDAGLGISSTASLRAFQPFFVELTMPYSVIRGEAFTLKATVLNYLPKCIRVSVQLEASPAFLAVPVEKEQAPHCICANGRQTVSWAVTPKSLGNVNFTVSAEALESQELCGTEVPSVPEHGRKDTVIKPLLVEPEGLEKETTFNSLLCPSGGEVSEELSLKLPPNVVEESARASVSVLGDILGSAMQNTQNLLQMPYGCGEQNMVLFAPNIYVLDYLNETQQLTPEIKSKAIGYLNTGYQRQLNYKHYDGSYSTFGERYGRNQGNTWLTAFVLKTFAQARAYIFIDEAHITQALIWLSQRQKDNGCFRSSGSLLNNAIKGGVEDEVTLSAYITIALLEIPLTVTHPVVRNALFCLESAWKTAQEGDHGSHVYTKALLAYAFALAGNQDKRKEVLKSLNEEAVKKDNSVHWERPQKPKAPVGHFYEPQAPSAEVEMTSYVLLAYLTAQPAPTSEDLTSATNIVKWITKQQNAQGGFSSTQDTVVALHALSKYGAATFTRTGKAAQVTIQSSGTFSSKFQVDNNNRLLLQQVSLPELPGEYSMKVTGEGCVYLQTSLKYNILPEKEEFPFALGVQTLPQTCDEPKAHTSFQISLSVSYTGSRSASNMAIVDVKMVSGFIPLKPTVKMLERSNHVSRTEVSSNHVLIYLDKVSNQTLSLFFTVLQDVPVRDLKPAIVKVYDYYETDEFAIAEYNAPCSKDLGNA

[2] = target: T2, recombinant mutant α2-macroglobulin with the native bait region replaced by sequences flanking the human probiglycan BMP-1 cleavage site (b-α2M)
T2 chain: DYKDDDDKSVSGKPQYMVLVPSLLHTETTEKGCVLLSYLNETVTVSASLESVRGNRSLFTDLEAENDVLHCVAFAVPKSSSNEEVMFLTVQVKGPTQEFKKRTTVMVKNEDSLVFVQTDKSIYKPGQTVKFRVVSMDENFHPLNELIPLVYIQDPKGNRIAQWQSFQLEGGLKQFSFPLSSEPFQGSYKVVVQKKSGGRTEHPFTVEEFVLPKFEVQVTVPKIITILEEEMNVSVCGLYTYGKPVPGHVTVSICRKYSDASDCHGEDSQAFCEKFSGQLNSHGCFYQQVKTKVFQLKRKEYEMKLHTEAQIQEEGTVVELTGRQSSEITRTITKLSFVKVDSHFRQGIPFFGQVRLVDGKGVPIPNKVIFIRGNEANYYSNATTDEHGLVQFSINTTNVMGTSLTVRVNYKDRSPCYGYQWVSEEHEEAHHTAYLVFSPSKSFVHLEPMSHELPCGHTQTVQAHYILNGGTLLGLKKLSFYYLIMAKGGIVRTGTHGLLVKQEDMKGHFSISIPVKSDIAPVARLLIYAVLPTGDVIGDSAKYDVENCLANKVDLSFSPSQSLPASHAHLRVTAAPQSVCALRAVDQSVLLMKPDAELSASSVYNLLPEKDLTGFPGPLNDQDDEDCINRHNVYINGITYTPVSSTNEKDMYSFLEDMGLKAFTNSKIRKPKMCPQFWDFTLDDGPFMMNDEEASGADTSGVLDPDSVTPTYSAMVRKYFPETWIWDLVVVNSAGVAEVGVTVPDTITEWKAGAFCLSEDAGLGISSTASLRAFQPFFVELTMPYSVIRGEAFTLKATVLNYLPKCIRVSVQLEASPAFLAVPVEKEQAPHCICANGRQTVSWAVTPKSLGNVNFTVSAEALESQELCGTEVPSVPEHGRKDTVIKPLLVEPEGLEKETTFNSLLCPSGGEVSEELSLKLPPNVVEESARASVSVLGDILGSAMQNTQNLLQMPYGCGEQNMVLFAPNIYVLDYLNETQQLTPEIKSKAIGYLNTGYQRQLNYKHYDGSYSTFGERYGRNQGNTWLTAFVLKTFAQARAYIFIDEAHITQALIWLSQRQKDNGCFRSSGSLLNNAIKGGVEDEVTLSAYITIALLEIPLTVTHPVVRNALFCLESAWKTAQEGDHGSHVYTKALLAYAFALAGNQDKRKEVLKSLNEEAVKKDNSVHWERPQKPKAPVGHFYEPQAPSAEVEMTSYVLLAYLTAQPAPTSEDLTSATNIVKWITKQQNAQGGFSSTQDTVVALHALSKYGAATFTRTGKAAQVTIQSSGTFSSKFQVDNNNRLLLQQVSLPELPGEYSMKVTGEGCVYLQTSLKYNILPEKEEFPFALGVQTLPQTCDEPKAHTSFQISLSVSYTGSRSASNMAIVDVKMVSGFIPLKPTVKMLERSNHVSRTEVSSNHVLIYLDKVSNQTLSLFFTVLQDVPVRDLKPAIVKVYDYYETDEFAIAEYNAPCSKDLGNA

[3] = target: T3, human α2-macroglobulin from plasma (Sigma-Aldrich); assay: 2 hour co-incubation of 40 nM 35S-BMP-1 with 40 nM α2M, SDS-PAGE autofluorogram
T3 chain: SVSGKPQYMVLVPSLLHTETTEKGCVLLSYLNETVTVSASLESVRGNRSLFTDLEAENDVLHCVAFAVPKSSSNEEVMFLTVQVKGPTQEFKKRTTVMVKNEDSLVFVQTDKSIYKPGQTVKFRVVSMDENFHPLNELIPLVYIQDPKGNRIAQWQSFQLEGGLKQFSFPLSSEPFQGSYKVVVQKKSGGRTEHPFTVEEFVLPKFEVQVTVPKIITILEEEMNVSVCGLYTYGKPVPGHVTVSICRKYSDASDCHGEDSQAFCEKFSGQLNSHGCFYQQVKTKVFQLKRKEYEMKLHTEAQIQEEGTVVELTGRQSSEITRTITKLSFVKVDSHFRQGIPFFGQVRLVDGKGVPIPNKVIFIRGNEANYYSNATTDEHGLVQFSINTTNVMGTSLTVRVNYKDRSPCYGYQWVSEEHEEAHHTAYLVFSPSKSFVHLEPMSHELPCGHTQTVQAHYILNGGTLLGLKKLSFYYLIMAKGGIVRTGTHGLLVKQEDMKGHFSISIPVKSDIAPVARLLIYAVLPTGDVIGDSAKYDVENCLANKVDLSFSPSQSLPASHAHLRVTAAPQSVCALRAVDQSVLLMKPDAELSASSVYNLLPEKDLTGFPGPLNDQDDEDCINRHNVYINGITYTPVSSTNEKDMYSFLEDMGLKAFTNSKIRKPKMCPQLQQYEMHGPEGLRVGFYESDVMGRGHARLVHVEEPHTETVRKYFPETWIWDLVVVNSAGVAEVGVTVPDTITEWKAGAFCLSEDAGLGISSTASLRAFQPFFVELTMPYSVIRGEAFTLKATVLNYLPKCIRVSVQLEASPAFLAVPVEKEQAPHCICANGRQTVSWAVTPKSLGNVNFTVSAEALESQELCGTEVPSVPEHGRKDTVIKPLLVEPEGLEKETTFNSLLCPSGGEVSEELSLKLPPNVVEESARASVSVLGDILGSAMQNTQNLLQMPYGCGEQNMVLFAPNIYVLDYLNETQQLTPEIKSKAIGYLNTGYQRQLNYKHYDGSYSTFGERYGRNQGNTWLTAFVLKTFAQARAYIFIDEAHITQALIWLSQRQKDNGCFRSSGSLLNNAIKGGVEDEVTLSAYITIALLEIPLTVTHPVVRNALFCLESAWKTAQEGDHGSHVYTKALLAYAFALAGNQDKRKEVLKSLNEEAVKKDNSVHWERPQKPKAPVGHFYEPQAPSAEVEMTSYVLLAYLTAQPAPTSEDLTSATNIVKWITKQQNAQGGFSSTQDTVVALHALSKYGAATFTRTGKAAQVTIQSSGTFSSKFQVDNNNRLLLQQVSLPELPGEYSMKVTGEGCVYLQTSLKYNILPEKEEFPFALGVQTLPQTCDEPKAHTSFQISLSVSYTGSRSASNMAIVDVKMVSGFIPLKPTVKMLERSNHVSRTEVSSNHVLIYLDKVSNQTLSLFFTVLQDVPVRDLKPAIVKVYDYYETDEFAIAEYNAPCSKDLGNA

[4] = target: T2, recombinant mutant α2-macroglobulin …; assay: as above
[5] = target: T4, recombinant wild type α2-macroglobulin (FLAG-tagged); assay: as above
T4 chain: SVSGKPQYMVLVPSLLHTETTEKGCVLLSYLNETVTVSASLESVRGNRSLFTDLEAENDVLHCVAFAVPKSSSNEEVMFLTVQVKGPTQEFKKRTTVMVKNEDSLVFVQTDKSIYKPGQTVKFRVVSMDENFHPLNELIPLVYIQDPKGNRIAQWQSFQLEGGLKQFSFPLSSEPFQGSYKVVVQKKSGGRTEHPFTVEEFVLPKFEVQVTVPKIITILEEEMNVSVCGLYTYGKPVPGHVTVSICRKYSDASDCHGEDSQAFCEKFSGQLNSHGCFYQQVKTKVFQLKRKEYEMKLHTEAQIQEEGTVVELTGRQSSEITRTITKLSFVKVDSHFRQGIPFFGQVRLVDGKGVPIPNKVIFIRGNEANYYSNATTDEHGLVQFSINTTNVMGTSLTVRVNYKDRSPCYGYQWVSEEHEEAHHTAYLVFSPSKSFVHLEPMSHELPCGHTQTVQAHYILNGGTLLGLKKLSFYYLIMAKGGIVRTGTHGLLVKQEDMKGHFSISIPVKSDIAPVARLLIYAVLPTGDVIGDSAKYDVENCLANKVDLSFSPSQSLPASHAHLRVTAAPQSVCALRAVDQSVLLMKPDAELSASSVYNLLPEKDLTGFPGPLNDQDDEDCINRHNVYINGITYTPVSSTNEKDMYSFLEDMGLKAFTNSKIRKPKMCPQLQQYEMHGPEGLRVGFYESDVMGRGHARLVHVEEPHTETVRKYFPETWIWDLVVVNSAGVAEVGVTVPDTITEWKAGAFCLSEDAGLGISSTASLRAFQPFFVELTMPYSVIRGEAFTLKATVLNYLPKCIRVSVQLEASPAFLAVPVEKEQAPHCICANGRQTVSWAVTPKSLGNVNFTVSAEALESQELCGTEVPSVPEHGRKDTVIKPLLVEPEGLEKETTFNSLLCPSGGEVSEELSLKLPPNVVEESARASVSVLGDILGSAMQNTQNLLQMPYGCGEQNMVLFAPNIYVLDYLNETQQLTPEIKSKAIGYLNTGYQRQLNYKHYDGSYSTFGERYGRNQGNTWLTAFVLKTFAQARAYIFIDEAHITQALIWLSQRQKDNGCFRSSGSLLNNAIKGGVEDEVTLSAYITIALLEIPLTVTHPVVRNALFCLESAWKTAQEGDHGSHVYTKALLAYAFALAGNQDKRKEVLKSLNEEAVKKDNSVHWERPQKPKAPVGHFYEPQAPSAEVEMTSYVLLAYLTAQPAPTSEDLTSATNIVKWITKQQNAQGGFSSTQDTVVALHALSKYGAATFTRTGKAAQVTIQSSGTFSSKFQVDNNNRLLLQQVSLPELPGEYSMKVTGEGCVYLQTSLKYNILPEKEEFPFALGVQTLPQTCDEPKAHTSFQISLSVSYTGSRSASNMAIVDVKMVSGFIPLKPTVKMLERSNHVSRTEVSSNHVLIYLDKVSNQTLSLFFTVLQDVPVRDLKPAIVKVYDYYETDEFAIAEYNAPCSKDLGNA

B1: Flag-tagged recombinant bone morphogenetic protein-1 (BMP-1) (protein)
chain: AATSRPERVWPDGVIPFVIGGNFTGSQRAVFRQAMRHWEKHTCVTFLERTDEDSYIVFTYRPCGCCSYVGRRGGGPQAISIGKNCDKFGIVVHELGHVVGFWHEHTRPDRDRHVSIVRENIQPGQEYNFLKMEPQEVESLGETYDFDSIMHYARNTFSRGIFLDTIVPKYEVNGVKPPIGQRTRLSKGDIAQARKLYKCPACGETLQDSTGNFSSPEYPNGYSAHMHCVWRISVTPGEKIILNFTSLDLYRSRLCWYDYVEVRDGFWRKAPLRGRFCGSKLPEPIVSTDSRLWVEFRSSSNWVGKGFFAVYEAICGGDVKKDYGHIQSPNYPDDYRPSKVCIWRIQVSEGFHVGLTFQSFEIERHDSCAYDYLEVRDGHSESSTLIGRYCGYEKPDDIKSTSSRLWLKFVSDGSINKAGFAVNFFKEVDECSRPNRGGCEQRCLNTLGSYKCSCDPGYELAPDKRRCEAACGGFLTKLNGSITSPGWPKEYPPNKNCIWQLVAPTQYRISLQFDFFETEGNDVCKYDFVEVRSGLTADSKLHGKFCGSEKPEVITSQYNNMRVEFKSDNTVSKKGFKAHFFSEKRPALQPPRGRPHQLKFRVQKRNRTPQ
With B1 the “cleavage of α2M by BMP-1 (SDS-PAGE)” value [1] was “BMP-1 was unable to cleave methylamine-treated α2M”, the “cleavage of α2M by BMP-1 (Western blot, time course)” value [2] was “b-α2M is cleaved by BMP-1 more readily than recombinant wild-type α2M (rα2M)” and the “percent of BMP-1 incorporated into complexes” value (“percent” for short) [3] was 28% of sample. The “percent” value [4] was 42% of sample and the “percent” value [5] was 12% of sample.
